Experimental data from PMC6007841.

How the values were obtained:
[1] = target: mouse melanocortin 5 receptor (mouse) (UniProt P41149)
[2] = target: mouse melanocortin 4 receptor (mouse) (UniProt P56450)
[3] = target: human melanocortin 5 receptor (human) (UniProt P33032)
[4] = target: human melanocortin 1 receptor (human) (UniProt Q01726)
[5] = target: mouse melanocortin 1 receptor (mouse) (UniProt Q01727)
[6] = target: human melanocortin 4 receptor (human) (UniProt P32245)
[7] = target: mouse melanocortin 3 receptor (mouse) (UniProt P33033)
[8] = target: human melanocortin 3 receptor (human) (UniProt P41968)
Chain of human melanocortin 3 receptor (human) (P41968 whole entry): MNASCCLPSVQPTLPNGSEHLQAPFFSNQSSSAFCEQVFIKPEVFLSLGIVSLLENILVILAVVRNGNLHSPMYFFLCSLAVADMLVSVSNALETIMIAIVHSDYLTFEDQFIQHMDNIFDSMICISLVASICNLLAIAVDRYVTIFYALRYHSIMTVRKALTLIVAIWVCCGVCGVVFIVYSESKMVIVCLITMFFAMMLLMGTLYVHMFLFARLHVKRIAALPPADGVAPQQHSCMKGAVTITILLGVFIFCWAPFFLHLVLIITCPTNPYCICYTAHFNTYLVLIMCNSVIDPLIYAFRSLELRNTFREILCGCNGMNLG

Chain of human melanocortin 4 receptor (human) (P32245 whole entry): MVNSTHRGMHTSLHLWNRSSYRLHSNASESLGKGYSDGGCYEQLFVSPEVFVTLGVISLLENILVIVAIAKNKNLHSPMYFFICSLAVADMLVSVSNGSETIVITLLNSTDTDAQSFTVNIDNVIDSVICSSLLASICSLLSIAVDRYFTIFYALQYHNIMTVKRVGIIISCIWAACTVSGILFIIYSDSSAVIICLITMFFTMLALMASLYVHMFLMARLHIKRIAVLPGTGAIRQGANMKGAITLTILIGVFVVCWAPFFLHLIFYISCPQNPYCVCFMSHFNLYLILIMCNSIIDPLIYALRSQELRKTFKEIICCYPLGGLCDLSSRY
Chain of mouse melanocortin 3 receptor (mouse) (P33033 whole entry): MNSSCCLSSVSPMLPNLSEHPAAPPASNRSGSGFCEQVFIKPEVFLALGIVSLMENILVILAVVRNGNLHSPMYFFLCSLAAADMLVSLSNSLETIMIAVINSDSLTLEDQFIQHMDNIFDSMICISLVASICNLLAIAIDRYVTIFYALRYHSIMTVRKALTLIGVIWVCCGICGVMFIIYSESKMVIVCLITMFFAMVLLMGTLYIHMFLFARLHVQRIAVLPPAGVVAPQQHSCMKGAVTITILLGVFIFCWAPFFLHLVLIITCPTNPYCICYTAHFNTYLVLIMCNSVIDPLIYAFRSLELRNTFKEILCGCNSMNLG
Chain of mouse melanocortin 4 receptor (mouse) (P56450 whole entry): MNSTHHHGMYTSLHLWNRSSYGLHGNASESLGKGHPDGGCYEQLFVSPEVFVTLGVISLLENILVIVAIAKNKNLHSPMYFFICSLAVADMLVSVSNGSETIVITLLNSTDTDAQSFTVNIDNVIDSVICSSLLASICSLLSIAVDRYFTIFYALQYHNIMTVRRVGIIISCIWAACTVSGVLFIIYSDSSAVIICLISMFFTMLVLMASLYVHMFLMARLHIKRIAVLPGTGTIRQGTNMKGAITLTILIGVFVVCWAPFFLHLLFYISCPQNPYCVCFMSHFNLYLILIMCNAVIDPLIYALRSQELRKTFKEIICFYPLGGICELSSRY
Chain of human melanocortin 1 receptor (human) (Q01726 whole entry): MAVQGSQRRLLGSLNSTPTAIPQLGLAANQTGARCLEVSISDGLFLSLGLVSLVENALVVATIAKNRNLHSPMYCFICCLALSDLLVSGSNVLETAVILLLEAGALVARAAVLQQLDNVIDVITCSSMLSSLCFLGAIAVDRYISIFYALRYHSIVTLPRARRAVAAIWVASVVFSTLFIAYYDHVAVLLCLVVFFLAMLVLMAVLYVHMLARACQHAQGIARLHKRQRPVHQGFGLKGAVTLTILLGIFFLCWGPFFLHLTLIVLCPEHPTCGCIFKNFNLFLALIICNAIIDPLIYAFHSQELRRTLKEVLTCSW
Chain of mouse melanocortin 1 receptor (mouse) (Q01727 whole entry): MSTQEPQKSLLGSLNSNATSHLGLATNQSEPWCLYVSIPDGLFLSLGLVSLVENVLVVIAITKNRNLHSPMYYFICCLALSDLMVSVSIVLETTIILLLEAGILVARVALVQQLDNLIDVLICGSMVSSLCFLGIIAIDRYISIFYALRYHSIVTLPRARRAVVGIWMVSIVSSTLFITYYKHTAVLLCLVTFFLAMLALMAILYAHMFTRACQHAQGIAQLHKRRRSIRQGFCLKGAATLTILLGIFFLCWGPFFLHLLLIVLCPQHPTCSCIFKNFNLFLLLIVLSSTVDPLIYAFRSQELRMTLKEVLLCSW
Chain of mouse melanocortin 5 receptor (mouse) (P41149 whole entry): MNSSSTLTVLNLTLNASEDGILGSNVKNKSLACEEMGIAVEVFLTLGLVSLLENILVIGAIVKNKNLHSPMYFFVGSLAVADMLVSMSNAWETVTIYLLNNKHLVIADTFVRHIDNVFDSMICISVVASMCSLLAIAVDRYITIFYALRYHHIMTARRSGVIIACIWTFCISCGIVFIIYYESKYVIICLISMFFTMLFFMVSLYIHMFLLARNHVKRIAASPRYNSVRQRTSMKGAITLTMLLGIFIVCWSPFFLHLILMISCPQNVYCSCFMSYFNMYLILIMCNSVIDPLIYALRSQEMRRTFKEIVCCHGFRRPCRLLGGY
Chain of human melanocortin 5 receptor (human) (P33032 whole entry): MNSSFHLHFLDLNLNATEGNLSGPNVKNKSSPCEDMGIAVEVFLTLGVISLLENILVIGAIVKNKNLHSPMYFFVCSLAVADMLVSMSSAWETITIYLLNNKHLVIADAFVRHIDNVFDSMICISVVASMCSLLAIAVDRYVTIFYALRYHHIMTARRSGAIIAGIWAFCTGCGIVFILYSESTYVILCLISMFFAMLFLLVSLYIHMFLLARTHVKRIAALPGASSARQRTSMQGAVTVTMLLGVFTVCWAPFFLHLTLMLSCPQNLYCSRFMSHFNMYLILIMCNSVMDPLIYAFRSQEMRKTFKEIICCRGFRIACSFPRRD

NDP-MSH (peptide)
cAMP agonist EC50 (AlphaScreen cAMP assay, HEK293 cells expressing the receptor) [1]: 0.41 nM | cAMP agonist EC50 (AlphaScreen cAMP assay, HEK293 cells expressing the receptor) [2]: 0.87 nM | cAMP agonist EC50 (AlphaScreen cAMP assay, HEK293 cells expressing the receptor) [3]: 0.4 nM | cAMP agonist EC50 (AlphaScreen cAMP assay, HEK293 cells expressing the receptor) [4]: 0.07 nM | cAMP agonist EC50 (AlphaScreen cAMP assay, HEK293 cells expressing the receptor) [5]: 0.04 nM | cAMP agonist EC50 (AlphaScreen cAMP assay, HEK293 cells expressing the receptor) [6]: 0.13 nM | cAMP agonist EC50 (AlphaScreen cAMP assay, HEK293 cells expressing the receptor) [7]: 0.33 nM | cAMP agonist EC50 (AlphaScreen cAMP assay, HEK293 cells expressing the receptor) [8]: 0.3 nM
